Data as given in publication PMC2628611.

Biological target: GST-DOC2b (wild type) (mouse) (UniProt P70169)
Assay: pull-down

UniProt P70169, sequence (P70169 whole entry): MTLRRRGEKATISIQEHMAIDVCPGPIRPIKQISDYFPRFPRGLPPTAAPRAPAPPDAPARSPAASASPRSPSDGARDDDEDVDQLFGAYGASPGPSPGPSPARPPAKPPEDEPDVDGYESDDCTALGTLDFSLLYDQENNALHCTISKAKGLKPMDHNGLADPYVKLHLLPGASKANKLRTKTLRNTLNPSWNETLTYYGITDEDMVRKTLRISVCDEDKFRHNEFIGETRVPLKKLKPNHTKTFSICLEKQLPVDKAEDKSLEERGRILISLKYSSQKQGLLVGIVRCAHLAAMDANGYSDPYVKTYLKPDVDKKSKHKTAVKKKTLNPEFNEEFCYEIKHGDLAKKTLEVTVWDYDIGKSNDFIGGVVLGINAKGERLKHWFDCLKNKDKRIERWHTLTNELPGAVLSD

## recombinant syntaxin-4 (cleaved from GST syntaxin-4) (from UniProt P70452 1-298) (natural protein)
  percent of syntaxin-4 pulled down: 5%
